For one experiment, the target named is HLA-A*03:01. Briefly: IEDB peptide-MHC binding, purified MHC/direct/fluorescence; filed as Kd, often an IC50 or EC50 that approximates it; ≥ and ≤ were set here for values at or beyond the usual limits of such assays. The conditions noted are these: source organism: SARS-CoV1.
For a further experiment, the target named is HLA-A*11:01. The experiment is described as above. The following applies: source organism: SARS-CoV1.

On to ATNNVFRLK, for which the Kd is 0.401 µM in the experiment with HLA-A*03:01 and 0.233 µM with HLA-A*11:01. For YIFFASFYY the same measures were 1.18 µM and 0.347 µM. On to QLFKPLTKK, for which the Kd with HLA-A*03:01 stood at 0.215 µM; in the experiment with HLA-A*11:01, 0.237 µM. As for ITCVVIPSK, the Kd with HLA-A*03:01 was 1.88 µM; in the experiment with HLA-A*11:01 it was 0.29 µM. Regarding AITTSNCAK, the Kd with HLA-A*03:01 turned out to be 0.646 µM; with HLA-A*11:01, 0.054 µM. In the case of KVIQPRVEK, the equilibrium dissociation constant (Kd) was 0.595 µM with HLA-A*03:01 and 0.168 µM with HLA-A*11:01. For AVLQSGFRK the same measures were 0.259 µM and 0.08 µM. Turning to KLFAAETLK, in the experiment with HLA-A*11:01, the Kd was determined as 0.234 µM. That is a sub-micromolar value. For AVDPAKAYK, the figures for the Kd with HLA-A*03:01 and in the experiment with HLA-A*11:01 were 1.67 µM and 0.124 µM, respectively. For ATVVIGTSK the same measures were 0.232 µM and 0.03 µM. Consider LIGANYLGK, for which the values for the Kd with HLA-A*03:01 and with HLA-A*11:01 were 0.999 µM and 1.47 µM, respectively.

For KCYGVSATK, the Kd with HLA-A*03:01 came to 2.07 µM; with HLA-A*11:01, 8.38 µM. As to GVAMPNLYK, the Kd in the experiment with HLA-A*03:01 was 0.06 µM; with HLA-A*11:01, 0.073 µM. On the same counts, the results for ATFSVPMEK are 0.265 µM and 0.028 µM. For RLYYDSMSY, the Kd in the experiment with HLA-A*03:01 came to 0.052 µM; in the experiment with HLA-A*11:01, 0.237 µM. As for SSSLTSLLK, the values for the Kd with HLA-A*03:01 and in the experiment with HLA-A*11:01 were 0.276 µM and 0.051 µM, respectively. With KMQRMLLEK, the Kd with HLA-A*03:01 stood at 0.305 µM; with HLA-A*11:01, 0.341 µM. Turning to GTLSYDNLK, the figures for the Kd in the experiment with HLA-A*03:01 and in the experiment with HLA-A*11:01 were 0.365 µM and 0.048 µM, respectively. VVYRGTTTY: the Kd with HLA-A*03:01 was determined as 0.042 µM; with HLA-A*11:01, 0.117 µM. On the same counts, the results for VTFQGKFKK are 0.321 µM and 0.091 µM.

For ASLPTTIAK, the dissociation constant (Kd) came out at 0.056 µM with HLA-A*03:01 and 0.019 µM with HLA-A*11:01. For the sequence SSNVANYQK, the Kd with HLA-A*03:01 is 0.442 µM; with HLA-A*11:01 it was 0.023 µM. On the same counts, the results for ALRANSAVK are 0.197 µM and 1.76 µM.

Source of the values: the Immune Epitope Database (IEDB).
